Source: patent publication US12655208 (PARAGON THERAPEUTICS, dated 2026)
Positions count from the first letter of the chain named. Each block holds one binder with its values, some of them ahead of it.

How the values were obtained:
Recombinant Human IL-23 [1] = biological target: T1, Recombinant Human IL-23 (human, UniProt Q9NPF7 20-189; P29460 23-328); assay: cell-based or functional assay
T1 sequence (looked up) 1: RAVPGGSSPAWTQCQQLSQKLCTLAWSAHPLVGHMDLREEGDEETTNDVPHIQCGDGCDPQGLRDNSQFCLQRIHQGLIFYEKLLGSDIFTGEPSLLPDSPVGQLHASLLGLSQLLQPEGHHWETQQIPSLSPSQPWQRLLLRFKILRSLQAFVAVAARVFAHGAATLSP
T1 sequence (looked up) 2: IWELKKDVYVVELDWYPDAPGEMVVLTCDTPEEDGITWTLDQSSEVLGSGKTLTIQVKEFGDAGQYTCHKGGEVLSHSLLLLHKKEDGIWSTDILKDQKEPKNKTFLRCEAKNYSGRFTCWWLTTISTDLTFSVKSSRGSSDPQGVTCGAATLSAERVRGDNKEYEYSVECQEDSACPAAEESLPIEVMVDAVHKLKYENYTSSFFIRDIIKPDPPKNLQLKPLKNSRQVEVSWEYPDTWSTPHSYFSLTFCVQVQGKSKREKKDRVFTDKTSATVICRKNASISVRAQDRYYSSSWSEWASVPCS

Recombinant Human IL-23 [2] = biological target: T1, Recombinant Human IL-23; assay: cell-based or functional assay; remark: listed apart in the source
Recombinant Human IL-23 [3] = biological target: T1, Recombinant Human IL-23; assay: SPR (Biacore 8K), mAb captured on anti-human IgG, hIL-23 as analyte, 25 °C
Method: Binding affinities (K_D) of antibodies to human IL-23 (generated as described in Examples 1-3) were determined through surface plasmon resonance (SPR) using a BIA-CORE™ 8K SPR system (Cytiva). […] Anti-IL23 mAb constructs (diluted to 2 µg/mL) were captured onto flow cell 2 (active) for 60 sec at a flow rate of 10 µL/min. Recombinant Human IL-23 was prepared at concentrations of 0, 1.23, 3.7, 11.11, 33.33, 100 nM and injected over flow cell 1 (reference) and flow cell 2 (active) for 180 sec at a flow rate of 50 µL/min. Samples were injected in a multi-cycle manner over freshly captured mAb, by regenerating the capture surfaces with injection of 10 mM glycine, pH 1.5 for 30 sec at a flow rate of 30 µL/min. A 1:1 kinetic binding model was utilized to determine the apparent association (ka) and dissociation rate constants (kd). Their ratio provides the apparent equilibrium dissociation constant or affinity constant (K_D=kd/ka).

Recombinant Human IL-23 [4] = biological target: T1, Recombinant Human IL-23; assay: cell-based or functional assay; remark: listed apart in the source

B2: Clone MAb001 (antibody, human IgG1, kappa, L234A L235A, V domains shown)
VH: QVQLVQSGAEVKKPGSSVKVSCKASGYTFTTQTLHWMRQAPGQGLEWIGYIYPRDGSTKYNENFKGKVTITADKSTSTAYMELSSLRSEDTAVYYCAIPDRSGYAWFQHWGQGTLVTVSS
VL: DIQMTQSPSSLSASVGDRVTITCKASRDVAIAVAWYQQKPGKVPKLLIYWASTRHTGVPSRFSGSGSRTDFTLTISSLQPEDVADYFCHQYSSYPFTFGSGTKLEIKR
- Relative IC50, inhibition of IL-23-induced STAT3 activation (luciferase reporter, HEK 293F IL-23R+/IL-12Rβ1+) (Recombinant Human IL-23 [1]): 0.612 relative to Reference Antibody 1
- Relative IC50, inhibition of IL-23-induced phosphorylation of STAT3 in DB cells (pSTAT3 ELISA) (Recombinant Human IL-23 [2]): 0.573 relative to Reference Antibody 1
- koff (Recombinant Human IL-23 [3]): < 1e-06 s⁻¹
- kon (Recombinant Human IL-23 [3]): 151000 M⁻¹ s⁻¹

B5: Clone MAb002 (antibody, human IgG1, kappa, L234A L235A, V domains shown)
VH: EVQLLESGGGLVQPGGSLRLSCAASGYTFTDQTIHWVRQAPGKGLEWIGYIYPRDDSPKYNENFKGRATLSADNSKNTAYLQMNSLRAEDTAVYYCAIPDRSGYAWFIYWGQGTTVTVSS
VL: EIVMTQSPATLSVSPGERATLSCKASRDVAIAVAWYQQKPGQAPRLLLFWASTRHTGIPARFSGSGSRTEFTLTISSLQSEDFAVYYCHQYSSYPFTFGGGTKVEIKR
notes: Described as an extended half-life humanized IgG1 monoclonal antibody
- IC50, inhibition of STAT3 activity and phosphorylation (Recombinant Human IL-23 [4]): < 1 nM
- Relative IC50, inhibition of IL-23-induced STAT3 activation (luciferase reporter, HEK 293F IL-23R+/IL-12Rβ1+) (Recombinant Human IL-23 [1]): 0.64 relative to Reference Antibody 1
- koff (Recombinant Human IL-23 [3]): < 1e-06 s⁻¹
- kon (Recombinant Human IL-23 [3]): 266000 M⁻¹ s⁻¹

More lines, now with the values ahead:

- Relative IC50, inhibition of IL-23-induced STAT3 activation (luciferase reporter, HEK 293F IL-23R+/IL-12Rβ1+) (Recombinant Human IL-23 [1]): 1 relative to Reference Antibody 1
- Relative IC50, inhibition of IL-23-induced phosphorylation of STAT3 in DB cells (pSTAT3 ELISA) (Recombinant Human IL-23 [2]): 1 relative to Reference Antibody 1
- koff (Recombinant Human IL-23 [3]): < 1e-06 s⁻¹
- kon (Recombinant Human IL-23 [3]): 167000 M⁻¹ s⁻¹
B1: Reference Antibody 1 (antibody, human IgG1, kappa, L234A L235A, V domains shown)
VH: B2 VH with T31D, L34I, G56D, T58P, Q108I, H109Y
VL: B2 VL
notes: Human IgG1 with LALA; also called parental anti-human IL-23p19 antibody

- Relative IC50, inhibition of IL-23-induced STAT3 activation (luciferase reporter, HEK 293F IL-23R+/IL-12Rβ1+) (Recombinant Human IL-23 [1]): 0.409 relative to Reference Antibody 1
- koff (Recombinant Human IL-23 [3]): < 1e-06 s⁻¹
- kon (Recombinant Human IL-23 [3]): 247000 M⁻¹ s⁻¹
B3: Clone MAb004 (antibody, human IgG1, V domains shown)
VH: B2 VH with T31A, L34M, Q108I, H109V
VL: EIVMTQSPATLSVSPGERATLSCKASRDVAIAVAWYQQKPGQAPRLLLFWASTRHTGIPARFSGSGSRTEFTLTISSLQSEDFAVYYCHQYSSYPFTFGGGTKVEIK
notes: Tested in full antibody format; The printed constant part is human IgG1 with LALA/YTE

- Relative IC50, inhibition of IL-23-induced STAT3 activation (luciferase reporter, HEK 293F IL-23R+/IL-12Rβ1+) (Recombinant Human IL-23 [1]): 0.868 relative to Reference Antibody 1
- Relative IC50, inhibition of IL-23-induced phosphorylation of STAT3 in DB cells (pSTAT3 ELISA) (Recombinant Human IL-23 [2]): 0.799 relative to Reference Antibody 1
- koff (Recombinant Human IL-23 [3]): < 1e-06 s⁻¹
- kon (Recombinant Human IL-23 [3]): 164000 M⁻¹ s⁻¹
B4: Clone MAb003 (antibody, V domains shown)
VH: B2 VH with T31S, L34M, G56D, S57Y, T58P, E62D, Q108I
VL: B2 VL
